Stoichiometry N data for 2 substances are collected here from article doi:10.1101/2024.03.27.587050.

As usually defined, the stoichiometry N is the number of molecules, sites or subunits per partner or assembly.

Assay [1] has as its target Chaetomium thermophilum NAT10 (CtNAT10), E.coli produced recombinant (Chaetomium thermophilum). Put plainly: mass photometry.
The target of assay [2] is Chaetomium thermophilum NAT10 (CtNAT10), Sf9 produced recombinant (Chaetomium thermophilum). Kind of assay: mass photometry.

“Chaetomium thermophilum NAT10 (CtNAT10), E.coli produced recombinant (enzyme)”: the stoichiometry N in assay [1] is 2. “Chaetomium thermophilum NAT10 (CtNAT10), Sf9 produced recombinant (enzyme)”: the stoichiometry N in assay [2] worked out at 2.
